The series deals with TTP TZF (RBD) (Homo sapiens, UniProt P26651 102-170). The series is described as follows: NMR.
Chain of TTP TZF (RBD) (P26651 102-170): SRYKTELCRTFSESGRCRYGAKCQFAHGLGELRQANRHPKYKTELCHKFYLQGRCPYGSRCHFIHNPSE

Turning to UUUUAUUUAUUUU (ssRNA) [ARE13 (NMR)], the binding result was “binds”.

Source of the values: article PMC5129185.
